According to the nanobody polyreactivity screen of Harvey et al. (2022):

Experiment: yeast display, Sf9 membrane polyspecificity reagent, FACS + sequencing; frameworks hold sequencing errors
Procedure, shortened: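 After 36–48 hours of galactose induction, yeast (Saccharomyces cerevisiae BJ5465) displaying a synthetic nanobody library were stained at 4 °C for 1 hour with 10% biotinylated, detergent-solubilized Sf9 membrane reagent. Streptavidin microbeads enriched the stained cells before FACS sorting into low and high (top ~1%) gates on anti-HA and streptavidin fluorescence. Each clone's polyreactivity label reflects its gate of origin.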

Sequence | polyreactivity (PSR sort gate)
QVQLVESGGGLVQAGGSLRLTCAASGRIFVPYVMGWFRQAPGKERELVAAISSSGGSTYYADSVKGRFTISRDNAKNTVYLQMNSLKPEDTAVYYCAKPYYFHEEDHWGQGTQVTVSS | low polyreactivity
QVQLVESGGGLVQAGGSLRLTCAASGRILGRNAMGWYRQAPGKEREFVAGISYSGTSTYYADSVKGRFTISRDNAKNTVYLQMNSLKPEDTAVYYCNVKNQVYRRYYYWGQGTQVTVSS | high polyreactivity
QVQLVESGGGLVQAGGSLRLTCAASGRTFGVYAMGWYRQAPGKERELVADITSGGGTYYADSVKGRFTILRDNAKNTVYLQMNSLKPEDTAVYYCAARKWYYAYEYWGQGTQVTVSS | high polyreactivity
QVQLVESGGGLVQAGGSLRLTCAASGRTFRLYVMGWYRQAPGKERELVASISYGGGRTYYADSVKGRFTISRDNAKNTVYLQMNSLKPEDTAVYYCAARYYTYRLDMDYWGQGTQVTVSS | high polyreactivity
QVQLVESGGGLVQAGGSLRLTCAASGRTFRTYAMGWYRQAPGKERELVAAITSGGNTYYADSVKGRFTISRDNAKNTVYLQMNSLKPEDTAVYYCAAVQYFKVSYWGQGTQVTVSS | high polyreactivity
QVQLVESGGGLVQAGGSLRLTCAASGRTFYVNAMGWYRQAHGKERELVATISRGGSTHYADSVKGRFTISRDNAKYTVYLQLNSLKPEDTAVYYCAAPGRTSVYRYYYWGQGTQVTVSS | high polyreactivity
QVQLVESGGGLVQAGGSLRLTCAASGRTFYYYAMGWYRQAPGKERELVAAISRSGGSTYYADSVKGRFTISRDNSKNTVYLQMNSLKPEDTAVYYCAKVAITSSGYWRYDYWGQGTQVTVSS | high polyreactivity
QVQLVESGGGLVQAGGSLRLTCAASGRTLAKNAMGWYRQAPGKERELVAAISRRGGSTYYADSVKGRFTISRDNAKNTVYLQMNSLKPEDTAVYYCARASRQGYYQLSYDEFDYWGQGTQVTVSS | high polyreactivity
QVQLVESGGGLVQAGGSLRLTCAASGSIFFYYTMGWYRQAPGKERELVAAISVGGSTYYADSVKGRFTISRDNAKNTVYLQMNSLKPEDTAVYYCNAVPAKGYVTVVRYYYWGQGTQVTVSS | low polyreactivity
QVQLVESGGGLVQAGGSLRLTCAASGSIFPRYAMGWYREAPGKERELVAAISFRGASTYYADSVKGRFTISRDTEKNTVYLQMNSLKPEDTAVYYWNAVSRSLNYDYWGQGTQVTVSS | high polyreactivity
QVQLVESGGGLVQAGGSLRLTCAASGSIFRGYDMRWYRQAPGKERELVAASTWSGSTYYADSVKGRFTISRDNGKNTVYLQMNSLKPEDTAVYYCAAGSRYAYAYTMDYWGQGTQVTVSS | high polyreactivity
QVQLVESGGGLVQAGGSLRLTCAASGSIFRTNTMGWYRQAPGKVRELVAAITAIGDSTYYADSVKGRFTISRDNANNTVYLQMNSLKPEDTAVYYCAAEKVSWGYHFYSSYDYWGQGTQVTVSS | low polyreactivity
QVQLVESGGGLVQAGGSLRLTCAASGSIFTAYAMRLYRQAPGKERELVAAIDDSGDSTYYADSVKGRFTISRDNAKITVYLQMNSLKPEDTAVYYCKAEYRVNKEYDYWGQGTQVTVSS | low polyreactivity
QVQLVESGGGLVQAGGSLRLTCAASGSIFTAYTMGWYRQAPGKERDLVAAITERGGSTYYADSVKGRFTISRDNAKNTVYLQMNRMKPEDSAVYYCAASTLKDIYLWFRVDYWGQGTHVTVSS | low polyreactivity
QVQLVESGGGLVQAGGSLRLTCAASGSIFYFNTMGWYRQAPGKERELVAVISRRGGSTYYADSVKGRFTISRDNAKNTVYLQMNSLKPEDTAVYYCNAEVFDLWRSFLSPYEYWGQGTQVTVSS | low polyreactivity
QVQLVESGGGLVQAGGSLRLTCAASGSIFYYYAMGWYRQATGKERELVAAINSGVSTYYADSVKGRFTISRDNANNTVYLQMNSLKPDDTAVYYCAAPGHNLFGSWFSWTPDTYDYWGQGTQVTVSS | low polyreactivity

Sequence | polyreactivity (PSR sort gate)
QVQLVESGGGLVQAGGSLRLTCAASGSILDYYVMGWYRQAPAKEREMVAAIRGGGSTYYADSVKGRFTISRDNAKNTVYLQMNSLKPEDTAVYYCAKDSQTARDFDYWGQGSQVTVSS | low polyreactivity
QVQLVESGGGLVQAGGSLRLTCAASGSIYKYKAMGWYRQAPGKERELVAAIRWSGVGTRYADSVKGRFTISRDNAKNSLYLQMNSLKREDTAVYYCAADVSKYHDGHEYDYWGQGTQVTVSS | low polyreactivity
QVQLVESGGGLVQAGGSLRLTCAASGSTFDYNTMGWYRPAPGKETELVAAISESGGSTYYADSVKGRFTISRDNAKNTVYLQMNSLTPEDTAVYYCATDDFGGYFGEYDYWGQGTQVTVSS | low polyreactivity
QVQLVESGGGLVQAGGSLRLTCAASGSTFGWYAMGWYRQAPGKGRGVVAAITGDSASTYYADSVKGRFTISRDNAKNTVYLQTNSLKPEDTAVYYCAATKFSAFGSPPLIGYGYWGQGTQVTVSS | low polyreactivity
QVQLVESGGGLVQAGGSLRLTCAASGSTFIFKKYVMGWYRQAPGSERELVAVISRRGDSTYYADSVKRPFTISRDNAKNTVYLQMNSLKPEDTAVYYCGAGYSTAGLARYDYWGQGTQVTVSS | high polyreactivity
QVQLVESGGGLVQAGGSLRLTCAASGSTFKYYAMGWYRQAPGKERELVAAIDWNGGRTYYADSVKGRFTISRDNAKNTVYLQMNSLKPEDTAVYYCAKLGRAAQGNYYWGQGTQVTVSS | high polyreactivity
QVQLVESGGGLVQAGGSLRLTCAASGSTFSANAMGWYRPGPGKERELVAGISRSGGRTYYADSVKGRFTISRDNAKNTVYLQMNSLKPEDTAVYFCNDRRRGAGGYDYWGQGTQVTVSS | high polyreactivity
QVQLVESGGGLVQAGGSLRLTCAASGSTFSRYVIGWYRQEPGKERELVAAISRSGSTYYADSVKGRFTISRDNAKNTVYLQMNSLKPEDTAVYYCAASGSKSAGYGYWGQGTQVTVSS | high polyreactivity
QVQLVESGGGLVQAGGSLRLTCAASGSTFVLYARGWYRQAPGKERELVAAITRRGGDTYYADSVKGRFTISRDNAKNTVYLQMNSLKPEDTAVYFCATDYTTYGRYDYWGHGTQVTVSS | low polyreactivity
QVQLVESGGGLVQAGGSLRLTCAASGSTLYVYPMGWYRPAPGKERELVASINSGGSTNYADSVKGRFSISRDNAKNTVYLQMNSLKRVDTAVYYCNAEYYGWFHHYDYWGQGTQVTVSS | high polyreactivity
QVQLVESGGGLVQAGGSLRLTCAASGYIFLQYAMGWYRPAPGKERELVAAITYNGGITYYADSVKGRFTISRDNAKNTVYLQRNSLKPEDTAVYYCAADKNQDVSYVGFDYWGQGTQVTVSS | low polyreactivity
QVQLVESGGGLVQAGGSLRLTCAASGYIFPYNVMGWYRQAPGKERELVAAITWRVVRTYYADSVKGRFTISRDNAKNTVYLQMNSLKPEDTAVYYCAALSRQSGDYWGQGTQVTVSS | high polyreactivity
QVQLVESGGGLVQAGGSLRLTCAASGYIFYTYAMGWYRQAPGKERELVAGITGSGGSTYYADSVKGRFTISRDNAKNTVYLQMNSLKPEDTAVYYCAKDIYQIGYRRYDSWGQGTQVTVSS | low polyreactivity
QVQLVESGGGLVQAGGSLRLTCAASGYTFRGYAMGWYRQAPGKEREFVAAINWSDGSTYYADSVKGRFTISRDNAKNTVYLQMNSLKPEDTAVYYCNADQYYRVPDNYWGQGTQVTVSS | low polyreactivity
QVQLVESGGGLVQAGGSLRLTCAASGYTFWLNGMGWYRHAPGKERELVAAISSSGGSTYYADSVKGRFTISRDNAKNTVYLQMNSLKPEDTAVYDCAVDAYWRHWYYPYESHHDYWGQGTQVTVST | low polyreactivity
QVQLVESGGGLVQAGGSLRLTCAASGYTFYYAMGWYRQAPGKERELVAAITRGGSTYYADSVKGRFTISRDNAKNTVYLQMNSLKPEDTAVYYCATEYHAHYASRALYGYDHWGQGTQVTVSS | low polyreactivity
